The text below walks through data of article PMC2690687.

For this test, the target named is Epstein-Barr Nuclear Antigen 1 (EBNA1), wild type (Epstein-Barr virus) (UniProt P03211).

In turn, “Epstein-Barr Nuclear Antigen 1 (EBNA1), wild type (from UniProt P03211 1-641) (natural protein)” showed a transactivation of TKp-luciferase reporters with one to 20 EBNA1-binding sites, 20 sites over a single site, C33a cells of 150 fold.
